According to paper PMC5584928:

T1: integrin αvβ3 on β3-CHO cells (recombinant hamster αv/human β3 hybrid), P05106
T1 chain: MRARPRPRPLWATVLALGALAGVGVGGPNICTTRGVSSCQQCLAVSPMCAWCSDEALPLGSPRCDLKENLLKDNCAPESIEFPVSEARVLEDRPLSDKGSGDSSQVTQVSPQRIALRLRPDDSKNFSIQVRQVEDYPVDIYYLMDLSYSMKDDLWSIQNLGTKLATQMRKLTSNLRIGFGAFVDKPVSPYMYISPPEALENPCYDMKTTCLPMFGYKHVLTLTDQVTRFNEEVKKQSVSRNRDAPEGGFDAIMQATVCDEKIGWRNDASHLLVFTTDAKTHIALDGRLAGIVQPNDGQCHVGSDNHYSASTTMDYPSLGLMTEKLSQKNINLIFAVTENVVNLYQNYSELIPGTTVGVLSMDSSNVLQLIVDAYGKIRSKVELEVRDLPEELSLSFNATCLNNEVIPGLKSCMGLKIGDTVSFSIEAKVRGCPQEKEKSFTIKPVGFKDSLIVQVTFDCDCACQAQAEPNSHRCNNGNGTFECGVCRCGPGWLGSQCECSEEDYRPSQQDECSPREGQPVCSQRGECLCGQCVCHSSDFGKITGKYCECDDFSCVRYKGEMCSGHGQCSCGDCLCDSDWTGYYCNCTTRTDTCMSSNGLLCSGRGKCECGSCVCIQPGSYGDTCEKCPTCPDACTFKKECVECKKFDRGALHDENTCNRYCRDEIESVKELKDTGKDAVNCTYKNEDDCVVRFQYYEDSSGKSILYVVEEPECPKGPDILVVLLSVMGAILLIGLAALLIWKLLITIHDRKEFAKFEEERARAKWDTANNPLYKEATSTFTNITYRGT


Molecular target: T1, integrin αvβ3 on β3-CHO cells …
Test: cell adhesion assay (β3-CHO cells on coated IGF2)
Settings: chain shown with the change, Tyrode-HEPES buffer, 1 mM Mg2+, read off a plot
[1] = IGF2 coating 5 µg/ml, parent: est. 30
[2] = IGF2 coating 10 µg/ml, parent: est. 43
[3] = IGF2 coating 20 µg/ml, parent: est. 56

response (10 µg/ml IGF2, parent: est. 43) | response [1] | response [2] | response [3] | Binder
15 % Adhesion |  |  |  | WT IGF2 (insulin-like growth factor-2) R24E; R34E; R37E; R38E (protein) AYRPSETLCGGELVDTLQFVCGDEGFYFSRPASEVSEESRGIVEECCFRSCDLALLETYCATPAKSE
16 % Adhesion | 9.5 % Adhesion | 16 % Adhesion | 17 % Adhesion | WT IGF2 (insulin-like growth factor-2) R24E; R37E; R38E (protein) AYRPSETLCGGELVDTLQFVCGDEGFYFSRPASRVSEESRGIVEECCFRSCDLALLETYCATPAKSE
25 % Adhesion | 20 % Adhesion | 25 % Adhesion | 36 % Adhesion | WT IGF2 (insulin-like growth factor-2) R30E; R37E; R38E (protein) AYRPSETLCGGELVDTLQFVCGDRGFYFSEPASRVSEESRGIVEECCFRSCDLALLETYCATPAKSE
15 % Adhesion | 6.5 % Adhesion | 16 % Adhesion | 15 % Adhesion | WT IGF2 (insulin-like growth factor-2) R34E; R37E; R38E (protein) AYRPSETLCGGELVDTLQFVCGDRGFYFSRPASEVSEESRGIVEECCFRSCDLALLETYCATPAKSE
